Assay results: patent US20210107983A1 (Boehringer Ingelheim, published 2021)
Numbering of substitutions follows the chain as printed. Values belong to the binder of their own block, whether it stands above or below them.

Key:
[1] = biological target: T1, human B7H6 on HCT-15 cells (human, UniProt Q68D85 25-454); assay: cell-based or functional assay
T1 sequence (looked up): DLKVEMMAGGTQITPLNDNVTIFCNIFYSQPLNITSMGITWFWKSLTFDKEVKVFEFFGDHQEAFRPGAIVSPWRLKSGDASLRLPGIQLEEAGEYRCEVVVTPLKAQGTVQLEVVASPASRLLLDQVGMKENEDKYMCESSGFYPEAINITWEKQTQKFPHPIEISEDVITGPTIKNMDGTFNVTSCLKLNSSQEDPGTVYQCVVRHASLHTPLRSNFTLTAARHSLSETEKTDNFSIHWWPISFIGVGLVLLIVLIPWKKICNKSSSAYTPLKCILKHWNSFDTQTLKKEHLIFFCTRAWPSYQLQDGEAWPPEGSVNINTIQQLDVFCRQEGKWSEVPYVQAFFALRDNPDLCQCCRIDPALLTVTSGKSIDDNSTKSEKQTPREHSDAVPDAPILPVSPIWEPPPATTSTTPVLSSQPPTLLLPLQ

[2] = biological target: T2, Fc-His-tagged human B7H6 ECD (human); assay: ELISA, plate coated with Fc-His-tagged human B7H6 ECD, anti-human IgG F(ab')2-peroxidase, TMB
T2 construct: also called huB7H6-ECD-Fc-His; recombinant human B7H6 ECD
Protocol: To assess binding of B7H6/CD3 binding proteins to recombinant human Fc-His-tagged B7H6 ECD and human Fc-His-tagged Ala-mutated B7H6 extracellular proteins as described in Example 3, MediSorp™ plates (Nunc, 467320) were coated with […] recombinant proteins overnight at 4° C. The next day, plates were blocked with 0.5% bovine serum albumin (BSA) in phosphate buffered saline (PBS) for 1 hour at room temperature (RT). Subsequently plates were washed with […] containing 0.05% TWEEN®20 viscous liquid and B7H6/CD3 binding proteins were incubated at concentrations ranging from 0.00001 to 10 μg/ml. After an additional washing step, bound B7H6/CD3 binding proteins were detected by a peroxidase conjugated goat anti-human IgG F(ab′)₂-specific secondary antibody (Jackson Immunoresearch) and visualized by TMB substrate solution (Bender Med Systems).

[3] = biological target: T3, chicken egg white lysozyme (chicken, UniProt P00698 19-147); assay: SPR, 1 µM binder over immobilized lysozyme
T3 construct: unrelated positively charged protein, amine-coupled to the chip; also called Lysozyme (positive)
Outline: (§1)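 Non-specific binding tested with samples at 1 μM in HBS-EP at 25 °C, 5 μL/min, over lysozyme or trypsin inhibitor amine-coupled to CM5 chip (3000–5000 RU). Association 10 min, dissociation 15 min.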

Cyno B7H6-His [4] = biological target: T4, Cyno B7H6-His (cynomolgus monkey); assay: SPR, binder captured on Protein A/G, B7H6 analyte
T4 construct: also called CyB7H6; cyB7-H6
T4 chain: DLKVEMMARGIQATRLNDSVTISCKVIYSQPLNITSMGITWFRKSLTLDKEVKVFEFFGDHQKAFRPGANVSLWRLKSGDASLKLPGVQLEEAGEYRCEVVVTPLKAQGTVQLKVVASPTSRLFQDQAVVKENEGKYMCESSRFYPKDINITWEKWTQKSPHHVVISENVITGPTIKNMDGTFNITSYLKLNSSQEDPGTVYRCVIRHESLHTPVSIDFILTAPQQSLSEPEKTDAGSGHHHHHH
Outline: (§2)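 B7H6/CD3 binder captured (~700 RU) on a Protein A/G CM5 surface in HBS-EP+. Human or cyno B7H6 injected at 0–100 nM and human B7H1 at 0 nM and 1 μM, 300 s association and 1200 s dissociation. Data double-referenced against the reference flow cell and blank.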

Cyno B7H6-His [5] = biological target: T4, Cyno B7H6-His; assay: ratio of SPR KDs cyno/human
Cyno CD3 E+G HuFc-6xHis [6] = biological target: T5, Cyno CD3 E+G HuFc-6xHis (cynomolgus monkey); assay: ratio of SPR KDs cyno/human
T5 construct: also called CyCD3E+G-hFc; cyCD3

[7] = biological target: T6, trypsin inhibitor from Glycine max soybean (Glycine max (soybean)); assay: SPR, 1 µM binder over immobilized trypsin inhibitor
T6 construct: unrelated negatively charged protein, amine-coupled to the chip
Outline: as §1

Cyno CD3 E+G HuFc-6xHis [8] = biological target: T5, Cyno CD3 E+G HuFc-6xHis; assay: SPR, CD3E+G-hFc immobilized, binder analyte
Outline: (§3)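 On a ProteOn XPR36, human and cyno CD3E+G-hFc were amine-coupled to a GLM chip at 0.4, 0.2 and 0.1 μg/mL in 10 mM acetate pH 4.5. B7H6/CD3 binding protein (0–100 nM) flowed in HBS-EP+ at 30 μL/min, with 300 s association and 600 s dissociation. Interspot and blank responses were subtracted.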

Human CD3 E+G HuFc-6xHis = biological target: T7, Human CD3 E+G HuFc-6xHis (human); assay: SPR, CD3E+G-hFc immobilized, binder analyte
T7 construct: also called HuCD3E+G-hFc; huCD3
Outline: as §3

Human B7H1 = biological target: T8, Human B7H1 (human, UniProt Q9NZQ7 20-239); assay: SPR, binder captured on Protein A/G, HuB7H1 analyte
T8 construct: also called HuB7H1; huB7-H1
Outline: as §2

T7 sequence (chain, as listed by the source limits assumed): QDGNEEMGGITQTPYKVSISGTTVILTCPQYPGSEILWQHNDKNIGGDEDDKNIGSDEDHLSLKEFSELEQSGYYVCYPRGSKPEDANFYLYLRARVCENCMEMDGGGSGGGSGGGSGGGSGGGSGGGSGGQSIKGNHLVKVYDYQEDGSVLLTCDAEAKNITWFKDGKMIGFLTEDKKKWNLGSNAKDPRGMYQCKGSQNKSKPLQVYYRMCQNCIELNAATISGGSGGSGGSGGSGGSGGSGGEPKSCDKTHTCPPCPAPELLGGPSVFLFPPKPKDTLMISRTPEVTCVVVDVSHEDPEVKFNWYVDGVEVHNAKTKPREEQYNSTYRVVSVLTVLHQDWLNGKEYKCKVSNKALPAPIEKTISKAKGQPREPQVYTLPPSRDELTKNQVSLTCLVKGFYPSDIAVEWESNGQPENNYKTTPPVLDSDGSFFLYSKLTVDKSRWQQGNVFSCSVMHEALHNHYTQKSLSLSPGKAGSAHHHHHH
T3 sequence (P00698 19-147): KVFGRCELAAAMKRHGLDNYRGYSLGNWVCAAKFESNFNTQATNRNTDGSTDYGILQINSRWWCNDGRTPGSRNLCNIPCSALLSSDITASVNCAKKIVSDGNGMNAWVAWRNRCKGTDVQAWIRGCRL
T5 sequence (chain, as listed by the source limits assumed): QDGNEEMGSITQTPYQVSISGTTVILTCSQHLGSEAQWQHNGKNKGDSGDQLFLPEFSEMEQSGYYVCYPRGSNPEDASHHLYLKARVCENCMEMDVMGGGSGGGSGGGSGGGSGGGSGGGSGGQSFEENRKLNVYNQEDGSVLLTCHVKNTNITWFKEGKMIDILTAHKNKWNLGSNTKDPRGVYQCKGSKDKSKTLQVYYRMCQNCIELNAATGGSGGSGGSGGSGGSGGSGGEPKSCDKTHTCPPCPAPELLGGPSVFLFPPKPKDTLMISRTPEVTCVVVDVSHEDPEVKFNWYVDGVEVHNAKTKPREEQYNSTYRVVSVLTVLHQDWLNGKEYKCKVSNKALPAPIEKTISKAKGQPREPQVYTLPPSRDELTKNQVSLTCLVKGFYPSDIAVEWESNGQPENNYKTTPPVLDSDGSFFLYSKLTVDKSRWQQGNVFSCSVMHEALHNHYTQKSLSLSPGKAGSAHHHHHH
T6 sequence (P01070 25-205): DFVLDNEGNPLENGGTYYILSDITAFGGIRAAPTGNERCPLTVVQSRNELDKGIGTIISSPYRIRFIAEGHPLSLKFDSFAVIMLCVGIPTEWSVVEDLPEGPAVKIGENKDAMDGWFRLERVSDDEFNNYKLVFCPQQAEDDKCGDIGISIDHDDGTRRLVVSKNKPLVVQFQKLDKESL
T8 sequence (Q9NZQ7 other isoform, or with tags, fused parts or gaps limits assumed): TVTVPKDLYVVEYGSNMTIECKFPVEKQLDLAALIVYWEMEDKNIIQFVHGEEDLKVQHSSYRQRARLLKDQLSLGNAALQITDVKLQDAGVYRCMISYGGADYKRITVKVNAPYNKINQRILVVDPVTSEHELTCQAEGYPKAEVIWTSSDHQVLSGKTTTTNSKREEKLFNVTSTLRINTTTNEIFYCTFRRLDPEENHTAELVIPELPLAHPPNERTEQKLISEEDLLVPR

EC50 (read off the curve) [2]: ~0.05 µg/mL
B1: B7H6#11/CD3#1 (bispecific antibody)
chain 1: not shown
chain 2: EAVVTQEPSLTVSPGGTVTLTCRSSTGAVTTSNYANWVQEKPGQLPRGLIGGTNKRAPWVPARFSGSLLGGKAALTLSGAQPEDEAEYFCALWYSNLWVFGGGTKLTVLGQPKAAPSVTLFPPSSEELQANKATLVCLISDFYPGAVKVAWKADGSPVNTGVETTTPSKQSNNKYAASSYLSLTPEQWKSHRSYSCQVTHEGSTVEKTVAPAECSGGGGSEGKSSGSGSESKSTEGKSSGSGSESKSTGGGGSEVQLVESGGGLVQPGGSLKLSCAASGFTFNTYAMNWVRQAPGKGLEWVARIRSKYNNYATYYADSVKDRFTISRDDSKNTAYLQMNNLKTEDTAVYYCVRHGNFGNSYVSWFAYWGQGTLVTVSAASTKGPSVFPLAPSSKSTSGGTAALGCLVKDYFPEPVTVSWNSGALTSGVHTFPAVLQSSGLYSLSSVVTVPSSSLGTQTYICNVNHKPSNTKVDKRVEPKSCDKTHTCPPCPAPEAAGGPSVFLFPPKPKDTLMISRTPEVTCVVVDVSHEDPEVKFNWYVDGVEVHNAKTKPREEQYNSTYRVVSVLTVLHQDWLNGKEYKCKVSNKALPAPIEKTISKAKGQPREPQVYTLPPSREEMTKNQVSLSCAVKGFYPSDIAVEWESNGQPENNYKTTPPVLDSDGSFFLVSKLTVDKSRWQQGNVFSCSVMHEALHNRFTQKSLSLSPG
notes: scFab-Fc heterodimer, one B7H6 chain and one CD3 chain
EC50 [nM], 72 hour cytotoxicity assay, non-stimulated T-cells (Donor #1) as effector cells, HCT-15 cells as target cells [1]: 0.77 nM

EC50 (read off the curve) [2]: ~0.05 µg/mL
B2: B7H6#9/CD3#1 (bispecific antibody, human IgG1, kappa, lambda, L234A L235A)
chain 1: DIVLTQSPVSLAVSLGQRATISCRASESVDNFGVSFMNWFQQKPGQPPKLLIYAASNQGSGVPARFSGSGSGTDFSLNIHPLEEDDTAMYFCQQSKEVPWTFGGGTRLEIKRTVAAPSVFIFPPSDEQLKSGTASVVCLLNNFYPREAKVQWKVDNALQSGNSQESVTEQDSKDSTYSLSSTLTLSKADYEKHKVYACEVTHQGLSSPVTKSFNRGECGGGGSEGKSSGSGSESKSTEGKSSGSGSESKSTGGGGSQVQLQQPGAEMVRPGSSVKLSCKASDYTFTHYWIHWVKQRPLEGLEWIGIIGPSDNEIHYNQDFKDKATLTVDKSSNTAYLHLNSLTSEDSAVYYCARQIISMVVGTEYFDVWGTGTTVTVSSASTKGPSVFPLAPSSKSTSGGTAALGCLVKDYFPEPVTVSWNSGALTSGVHTFPAVLQSSGLYSLSSVVTVPSSSLGTQTYICNVNHKPSNTKVDKRVEPKSCDKTHTCPPCPAPEAAGGPSVFLFPPKPKDTLMISRTPEVTCVVVDVSHEDPEVKFNWYVDGVEVHNAKTKPREEQYNSTYRVVSVLTVLHQDWLNGKEYKCKVSNKALPAPIEKTISKAKGQPREPQVYTLPPSREEMTKNQVSLWCLVKGFYPSDIAVEWESNGQPENNYKTTPPVLDSDGSFFLYSKLTVDKSRWQQGNVFSCSVMHEALHNHYTQKSLSLSPG
chain 2: B1 chain 2
notes: as for B1
EC50 [nM], 72 hour cytotoxicity assay, non-stimulated T-cells (Donor #1) as effector cells, HCT-15 cells as target cells [1]: 0.44 nM

Non-specific binding (RU) [3]: 16.2 RU
Kd (Cyno B7H6-His [4]): 1 nM
cy/hu B7-H6 (Cyno B7H6-His [5]): 1.1
cy/hu CD3 (Cyno CD3 E+G HuFc-6xHis [6]): 1.2
Non-specific binding (RU) [7]: 110 RU
Kd (Cyno CD3 E+G HuFc-6xHis [8]): 5.2 nM
Kd (Human CD3 E+G HuFc-6xHis): 4.3 nM
binding result (Human B7H1): no binding (tested: 1 µM)
B3: B7H6#14/CD3#5 (bispecific antibody, human IgG1, kappa, L234A L235A)
chain 1: DIQMTQSPSSLSASVGDRVTITCKASQNVGKYVAWYQQKPGKAPKSLIYSASNRYDGVPSRFSGSGSGTDFTLTISSLQPEDFATYFCQQYISYPLTFGAGTKLEIKRTVAAPSVFIFPPSDEQLKSGTASVVCLLNNFYPREAKVQWKVDNALQSGNSQESVTEQDSKDSTYSLSSTLTLSKADYEKHKVYACEVTHQGLSSPVTKSFNRGECGGGGSEGKSSGSGSESKSTEGKSSGSGSESKSTGGGGSQVQLVQSGAEVKKPGASVKVSCKASGYTFTNYWMNWMKQAPGQGLEWIGGIYLNGDSTDYNEKFKGKVTMTVDTSTSTVYMELSSLRSEDTAVYYCTRRGDYFGDFWGQGTLVTVSSASTKGPSVFPLAPSSKSTSGGTAALGCLVKDYFPEPVTVSWNSGALTSGVHTFPAVLQSSGLYSLSSVVTVPSSSLGTQTYICNVNHKPSNTKVDKRVEPKSCDKTHTCPPCPAPEAAGGPSVFLFPPKPKDTLMISRTPEVTCVVVDVSHEDPEVKFNWYVDGVEVHNAKTKPREEQYNSTYRVVSVLTVLHQDWLNGKEYKCKVSNKALPAPIEKTISKAKGQPREPQVYTLPPSREEMTKNQVSLWCLVKGFYPSDIAVEWESNGQPENNYKTTPPVLDSDGSFFLYSKLTVDKSRWQQGNVFSCSVMHEALHNHYTQKSLSLSPG
chain 2: not shown
notes: scFab-Fc heterodimer

Non-specific binding (RU) [3]: 37.8 RU
Kd (Cyno B7H6-His [4]): 2 nM
cy/hu B7-H6 (Cyno B7H6-His [5]): 1.1
cy/hu CD3 (Cyno CD3 E+G HuFc-6xHis [6]): 1
Non-specific binding (RU) [7]: 47.8 RU
Kd (Cyno CD3 E+G HuFc-6xHis [8]): 10 nM
Kd (Human CD3 E+G HuFc-6xHis): 10.4 nM
binding result (Human B7H1): no binding (tested: 1 µM)
B4: B7H6#23/CD3#2 (bispecific antibody, human IgG1, kappa, L234A L235A)
chain 1: B3 chain 1 with G57A, N283S, N306S, D308E
chain 2: not shown
notes: scFab-Fc heterodimer

Non-specific binding (RU) [3]: 15.7 RU
Kd (Cyno B7H6-His [4]): 0.9 nM
cy/hu B7-H6 (Cyno B7H6-His [5]): 2.1
cy/hu CD3 (Cyno CD3 E+G HuFc-6xHis [6]): 1.4
Non-specific binding (RU) [7]: 34 RU
Kd (Cyno CD3 E+G HuFc-6xHis [8]): 5.7 nM
Kd (Human CD3 E+G HuFc-6xHis): 4.1 nM
binding result (Human B7H1): no binding (tested: 1 µM)
B5: B7H6#14/CD3#6 (bispecific antibody, human IgG1, kappa, L234A L235A)
chain 1: B3 chain 1
chain 2: not shown
notes: scFab-Fc heterodimer
